Data on 2 molecules can be found in publication PMC4288179, “Synergic interplay of the La motif, RRM1 and the interdomain linker of LARP6 in the recognition of collagen mRNA expands the RNA binding repertoire of the La module”.

The target of the data set is T1, HsLARP6 La module (70-300) (Homo sapiens, UniProt Q9BRS8 70-300).
T1 sequence: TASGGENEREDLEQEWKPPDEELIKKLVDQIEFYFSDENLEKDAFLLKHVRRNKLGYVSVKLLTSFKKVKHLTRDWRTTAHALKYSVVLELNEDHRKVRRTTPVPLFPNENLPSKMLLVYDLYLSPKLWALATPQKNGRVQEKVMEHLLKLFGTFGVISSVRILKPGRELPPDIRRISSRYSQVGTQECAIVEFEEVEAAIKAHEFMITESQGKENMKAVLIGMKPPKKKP
Description: ITC; ITC: 20 mM Tris pH 7.25, 100 mM KCl, 5 mM MgCl2, 1 mM DTT, 298 K; protein titrated into RNA. As to conditions: protein: recombinant, tags: N-terminal His6, TEV-cleaved for initial ITC. A general note: Isothermal titration calorimetry measures the heat released or taken up as one component is titrated into another.

Take UUUU (ssRNA) [UUUUOH RNA]: the Kd (single strand) came to 6 µM.
On to CAAAGAGUCUACAUGGGUCAUGUUCAGCUUUG (structured_RNA) [32 nt RNA], for which the dissociation constant Kd (stem-loop with internal bulge) is 0.125 µM.

Usually Kd stands for a measure of binding affinity in units of concentration.
